From paper PMC3252480 (Nature structural & molecular biology, 2011)
Blank lines part the entries; values can stand above or below the molecule they belong to.

B1: Vps21-His10 (natural protein, S. cerevisiae, UniProt P36017 1-210, looked up)
chain: MNTSVTSIKLVLLGEAAVGKSSIVLRFVSNDFAENKEPTIGAAFLTQRVTINEHTVKFEIWDTAGQERFASLAPMYYRNAQAALVVYDVTKPQSFIKARHWVKELHEQASKDIIIALVGNKIDMLQEGGERKVAREEGEKLAEEKGLLFFETSAKTGENVNDVFLGIGEKIPLKTAEEQNSASNERESNNQRVDLNAANDGTSANSACSC

Key:
[1] = biological target: Vps21-His10 (S. cerevisiae) (UniProt P36017); test: liposome tethering by quasielastic light scattering
GST-Ypt53 = biological target: T1, GST-Ypt53 (S. cerevisiae, UniProt P36019 1-220); test: bead-liposome tethering assay
T1 sequence (looked up): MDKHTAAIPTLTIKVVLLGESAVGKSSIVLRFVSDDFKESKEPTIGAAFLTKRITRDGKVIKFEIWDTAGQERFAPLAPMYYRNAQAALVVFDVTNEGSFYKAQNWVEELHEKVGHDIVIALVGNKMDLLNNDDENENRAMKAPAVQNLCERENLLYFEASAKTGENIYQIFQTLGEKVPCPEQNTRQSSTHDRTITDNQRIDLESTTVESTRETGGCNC

Vps21-His10 = biological target: B1; test: bead-liposome tethering assay

- critical surface density for tethering [1]: < 1300 μm^−2
Molecule: Vps21-His10 (from UniProt P36017 1-210) (natural protein)

Molecule: B1
- binding result (GST-Ypt53): binds

- binding result (Vps21-His10): binds
B2: GST-Ypt10 (natural protein, S. cerevisiae, UniProt P38146 1-199, looked up)
chain: MEATIKVVLLGDSSVGKTSIVTRLKSGKFLAKHAATIGAAFITKTIEVPSNDSSTEKRIHMEIWDTAGQERYKSLVPMYYRDANIALIVFELGDVSSLQCAKTWFQDLQDRAQGTQVIIVGNKYDLVCEEHSGEVTIPAELQGLPYVAVSAKTGYNFDTLNKIIISLVPESQFKTLSKNNEQGNILEINKKKSGSGCIC
